# From US10689452 (UNIVERSIT T STUTTGART, dated 2020)
# T1: human TNFR1-Fc fusion protein (human, UniProt P19438 29-211)
# T1 construct: range 29-211; Made in stably transfected HEK293 cells; coated on ELISA plates or immobilised on QCM chips; also called huTNFR1-Fc; human TNFR-Fc; not shown: Fc part from vector pSecTagL1-Fc
# T1 sequence (looked up): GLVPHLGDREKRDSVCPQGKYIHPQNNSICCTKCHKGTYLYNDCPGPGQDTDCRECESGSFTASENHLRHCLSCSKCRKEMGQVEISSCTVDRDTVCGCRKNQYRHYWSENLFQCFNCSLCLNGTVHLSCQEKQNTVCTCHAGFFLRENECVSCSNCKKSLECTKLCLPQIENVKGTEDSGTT
# T2: human TNFR1 on cells (HT1080, HeLa, Kym-1) (human, UniProt P19438 30-455)
# T2 sequence (looked up): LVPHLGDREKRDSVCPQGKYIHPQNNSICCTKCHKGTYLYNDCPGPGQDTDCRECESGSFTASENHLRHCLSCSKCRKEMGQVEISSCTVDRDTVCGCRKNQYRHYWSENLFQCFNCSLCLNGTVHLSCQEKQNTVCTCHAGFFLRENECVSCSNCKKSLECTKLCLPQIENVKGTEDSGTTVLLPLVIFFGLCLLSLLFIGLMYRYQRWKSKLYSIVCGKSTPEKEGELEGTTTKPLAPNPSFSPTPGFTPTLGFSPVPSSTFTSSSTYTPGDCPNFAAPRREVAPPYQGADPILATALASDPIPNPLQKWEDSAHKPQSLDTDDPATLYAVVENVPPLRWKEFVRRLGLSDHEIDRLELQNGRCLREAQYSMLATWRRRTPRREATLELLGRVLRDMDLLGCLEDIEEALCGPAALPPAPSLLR
# Key:
# [1] = target: T1, human TNFR1-Fc fusion protein; experiment: ELISA on coated human TNFR1-Fc, scFv titrated, signal as Binding [%]
# Description: FIG. 9. Binding to and blockade of human TNFR1.
# Microtiter plates were coated with 100 µl of the indicated protein (1 µg/ml in PBS, see Table 3.3) and incubated at 4° C. over night. The residual binding sites were blocked with 2% MPBS (skim milk in PBS, 200 µl per well) at room temperature for 2 hours and subsequently washed twice with PBS. 100 µl of the samples diluted in 2% MPBS were incubated at room temperature for 1 hour prior to the last incubation step with 100 µl of the HRP conjugated detection antibodies in 2% MPBS. In the case of competition experiments, both analyzed protein samples were prepared individually (either titrated or diluted to a single concentration) and mixed before they were applied to the plate. Bound protein was detected with 100 µl TMB substrate solution, the HRP-reaction was stopped by the addition of 50 µl 1 M H2SO4 and the absorption at the wavelength of 450 nm was measured using the Infinite microtiter plate reader (TECAN, Maennedorf, Switzerland). Between each incubation step and in advance of the detection, the plates were washed three times with PBST and twice with PBS.
# [2] = target: T2, human TNFR1 on cells (HT1080, HeLa, …); experiment: cell-based or functional assay
# [3] = target: T1, human TNFR1-Fc fusion protein; experiment: ELISA, immobilised human TNFR1-Fc
# [4] = target: T1, human TNFR1-Fc fusion protein; experiment: ELISA, human TNFR1-Fc
# [5] = target: T2, human TNFR1 on cells (HT1080, HeLa, …); experiment: cell-based or functional assay; remark: listed apart in the source
# [6] = target: T2, human TNFR1 on cells (HT1080, HeLa, …); experiment: cell-based or functional assay; remark: listed apart in the source
# [7] = target: T1, human TNFR1-Fc fusion protein; experiment: ELISA, immobilised human TNFR1-Fc; remark: listed apart in the source
Binder,binding result [1],"IL-8 Inhibition IC50 [nM] (HT1080 cells, 0.1 nM soluble TNF) [2]",EC50 [3],also measured
"Fv13.7-Fckih0DS (Fc fusion, also called monovalent Fv13.7-Fc fusion protein) chain 1: HVQLVQSGAEVKKPGSSVKVSCKASGYTFTDFYINWVRQAPGQGLEWIGEIVPSQGEAKYNDKFKARVTITADKSTSTAYMELSSLRSEDTAVYYCARWDFLDYWGQGTTVTVSSGTDKTHTSPPSPAPPVAGPSVFLFPPKPKDTLMISRTPEVTCVVVDVSHEDPEVKFNWYVDGVEVHNAKTKPREEQYNSTYRVVSVLTVLHQDWLNGKEYKCKVSNKGLPSSIEKTISKAKGQPREPQVYTLPPSRDELTKNQVSLSCAVKGFYPSDIAVEWESNGQPENNYKTTPPVLDSDGSFFLVSKLTVDKSRWQQGNVFSCSVMHEALHNHYTQKSLSLSPGK chain 2: DVQMTQSPSSLSASVGDRVTITCRSSQSLLHSNGNTYLHWYQQKPGKAPKLLIYTVSNRFSGVPSRFSGSGSGTDFTLTISSLQPEDFATYYCSQSTHVPYTFGGGTKVEIKGTDKTHTSPPSPAPPVAGPSVFLFPPKPKDTLMISRTPEVTCVVVDVSHEDPEVKFNWYVDGVEVHNAKTKPREEQYNSTYRVVSVLTVLHQDWLNGKEYKCKVSNKGLPSSIEKTISKAKGQPREPQVYTLPPSRDELTKNQVSLWCLVKGFYPSDIAVEWESNGQPENNYKTTPPVLDSDGSFFLYSKLTVDKSRWQQGNVFSCSVMHEALHNHYTQKSLSLSPGK",–,30.7 nM,0.3 nM,–
"scFvFRK13.7 (scFv, V domains shown) VH: HVQLVQSGAEVKKPGSSVKVSCKASGYTFTDFYINWVRQAPGQGLEWIGEIVPSQGEAKYNDKFKARVTITADKSTSTAYMELSSLRSEDTAVYYCARWDFLDYWGQGTTVTVSS VL: DVQMTQSPSSLSASVGDRVTITCRSSQSLLHSNGNTYLHWYQQKPGKAPKLLIYTVSNRFSGVPSRFSGSGSGTDFTLTISSLQPEDFATYYCSQSTHVPYTFGGGTKVEIK",–,–,–,"EC50 [4]: 1.09 nM; IC50 (nM), inhibition of TNF-induced IL-8 release from HT1080 cells [5]: 284 nM"
"scFvFRK13.1 (scFv, V domains shown) VH: QVQLVESGGGLVKPGGSLRLSCAASGFTFSDFYINWIRQAPGKGLEWVSEIYPYSGHAYYNEKFKARFTISRDNAKNSLYLQMNSLRAEDTAVYYCARWDFLDYWGQGTTVTVSS VL: DIQMTQSPSSLSASVGDRVTITCRSSQSLLHSNGNTYLHWYQQKPGKAPKLLIYTVSNRFSGVPSRFSGSGSGTDFTLTISSLQPEDFATYYCSQSTHVPYTFGGGTKVEIK",binds,–,–,–
"Fab13.7PEG (Fab, V domains shown, PEG (printed 'PEG400.000' in paragraph 589; methoxy-PEG 40 kDa maleimide in paragraph 649) conjugated to the newly introduced cysteine of the C-terminal ...DKTHTCAA (SEQ ID 34), also called PEGylated Fab13.7'; PEGylated derivative of Fab13.7) VH: HVQLVQSGAEVKKPGSSVKVSCKASGYTFTDFYINWVRQAPGQGLEWIGEIVPSQGEAKYNDKFKARVTITADKSTSTAYMELSSLRSEDTAVYYCARWDFLDYWGQGTTVTVSS VL: DVQMTQSPSSLSASVGDRVTITCRSSQSLLHSNGNTYLHWYQQKPGKAPKLLIYTVSNRFSGVPSRFSGSGSGTDFTLTISSLQPEDFATYYCSQSTHVPYTFGGGTKVEIKR",–,98.2 nM,5 nM,fold higher IC50 (IL-8 release inhibition) compared to Fab13.7 [6]: 4.9 fold; fold increased EC50 compared to unmodified Fab13.7 [7]: 2.6 fold
"scFvFRK13.5 (scFv, V domains shown, also called scFvFKR13.5) VH: HVQLVQSGAEVKKPGSSVKVSCKASGYTFTDFYINWVRQAPGQGLEWIGEIVPSQGEAKYNDKFKARVTITADKSTSTAYMELSSLRSEDTAVYYCARWDFLDYWGQGTTVTVSS VL: DIQMTQSPSSLSASVGDRVTITCRSSQSLLHSNGNTYLHWYQQKPGKAPKLLIYTVSNRFSGVPSRFSGSGSGTDFTLTISSLQPEDFATYYCSQSTHVPYTFGGGTKVEIK",–,–,–,"EC50 [4]: 1.06 nM; IC50 (nM), inhibition of TNF-induced IL-8 release from HT1080 cells [5]: 367 nM"
"Fab13.7-Fckih0DS (Fc fusion, knobs-into-holes heterodimer, FcgammaR-silenced, no hinge disulfides; also called monovalent Fab13.7-Fc fusion protein) chain 1: HVQLVQSGAEVKKPGSSVKVSCKASGYTFTDFYINWVRQAPGQGLEWIGEIVPSQGEAKYNDKFKARVTITADKSTSTAYMELSSLRSEDTAVYYCARWDFLDYWGQGTTVTVSSASTKGPSVFPLAPSSKSTSGGTAALGCLVKDYFPEPVTVSWNSGALTSGVHTFPAVLQSSGLYSLSSVVTVPSSSLGTQTYICNVNHKPSNTKVDKKVEPKSCGTDKTHTSPPSPAPPVAGPSVFLFPPKPKDTLMISRTPEVTCVVVDVSHEDPEVKFNWYVDGVEVHNAKTKPREEQYNSTYRVVSVLTVLHQDWLNGKEYKCKVSNKGLPSSIEKTISKAKGQPREPQVYTLPPSRDELTKNQVSLSCAVKGFYPSDIAVEWESNGQPENNYKTTPPVLDSDGSFFLVSKLTVDKSRWQQGNVFSCSVMHEALHNHYTQKSLSLSPGK chain 2: DVQMTQSPSSLSASVGDRVTITCRSSQSLLHSNGNTYLHWYQQKPGKAPKLLIYTVSNRFSGVPSRFSGSGSGTDFTLTISSLQPEDFATYYCSQSTHVPYTFGGGTKVEIKRTVAAPSVFIFPPSDEQLKSGTASVVCLLNNFYPREAKVQWKVDNALQSGNSQESVTEQDSKDSTYSLSSTLTLSKADYEKHKVYACEVTHQGLSSPVTKSFNRGECGTDKTHTSPPSPAPPVAGPSVFLFPPKPKDTLMISRTPEVTCVVVDVSHEDPEVKFNWYVDGVEVHNAKTKPREEQYNSTYRVVSVLTVLHQDWLNGKEYKCKVSNKGLPSSIEKTISKAKGQPREPQVYTLPPSRDELTKNQVSLWCLVKGFYPSDIAVEWESNGQPENNYKTTPPVLDSDGSFFLYSKLTVDKSRWQQGNVFSCSVMHEALHNHYTQKSLSLSPGK",–,61.2 nM,0.5 nM,fold higher IC50 (IL-8 release inhibition) compared to Fab13.7 [6]: 2.3 fold

# Second part, led by results:
binding result [1],"IL-8 Inhibition IC50 [nM] (HT1080 cells, 0.1 nM soluble TNF) [2]",EC50 [3],Binder,also measured
binds,–,–,"scFvFRK13.8 (scFv, V domains shown) VH: QVQLVESGGGLVKPGGSLRLSCAASGFTFSDFYINWIRQAPGKGLEWVSEIYPYSGHAYYNEKFKARFTISADNAKNSLYLQMNSLRAEDTAVYYCARWDFLDYWGQGTTVTVSS VL: DIVMTQSPLSLPVTPGEPASISCRSSQSLLHSNGNTYLHWYLQKPGQSPQLLIYTVSNRFSGVPDRFSGSGSGTDFTLKISRVEAEDVGVYYCSQGTHVPYTFGGGTKVEIK",–
binds,–,–,"scFvFRK13.4 (scFv, V domains shown) VH: QVQLVESGGGLVKPGGSLRLSCAASGFTFSDFYINWIRQAPGKGLEWVSEIYPYSGHAYYNEKFKARFTISADNAKNSLYLQMNSLRAEDTAVYYCARWDFLDYWGQGTTVTVSS VL: DIQMTQSPSSLSASVGDRVTITCRSSQSLLHSNGNTYLHWYQQKPGKAPKLLIYTVSNRFSGVPSRFSGSGSGTDFTLTISSLQPEDFATYYCSQSTHVPYTFGGGTKVEIK",–
binds,–,–,"scFvFRK13.3 (scFv, V domains shown) VH: QVQLVESGGGLVKPGGSLRLSCAASGFTFSDFYINWIRQAPGKGLEWVSEIYPYSGHAYYNEKFKARFTISRDNAKNSLYLQMNSLRAEDTAVYYCARWDFLDYWGQGTTVTVSS VL: DVQMTQSPSSLSASVGDRVTITCRSSQSLLHSNGNTYLHWYQQKPGKAPKLLIYTVSNRFSGVPSRFSGSGSGTDFTLTISSLQPEDFATYYCSQSTHVPYTFGGGTKVEIK",–
